B1: Pistol ribozyme (parent)
chain: GGGUCGUUGUUCCAUAAUCGCGUGGAUAUGGCACGCAAGUUUCUACCGGGCACCGUAAAUGUCCGACUGGAGCCGUUCGGGCGGCUAUAAACAGACCUCAGGCCCGAAGCGUGGCGGCACCUGCCGCCGGUGGUAAAAAAGAUCGGAAGAGCACACGUCU

Variants of: B1
Experiment: aptazyme ON/OFF ratio, guanine; higher = stronger switching; co-transcriptional cleavage with and without guanine

Variant | aptazyme ON/OFF ratio
GGGUCGAGCGAUAAUAAUCGCGUGGAUAUGGCACGCAAGUUUCUACCGGGCACCGUAAAUGUCCGACUGGAGCCGUUCGGGCGGCUAUAAACAGACCUCAGGCCCGAAGCGUGGCGGCACCUGCCGCCGGUGGUAAAAAAGAUCGGAAGAGCACACGUCU | 1.33
GGGUCGAGCGAUGAUAAUCGCGUGGAUAUGGCACGCAAGUUUCUACCGGGCACCGUAAAUGUCCGACUGGAGCCGUUCGGGCGGCUAUAAACAGACCUCAGGCCCGAAGCGUGGCGGCACCUGCCGCCGGUGGUAAAAAAGAUCGGAAGAGCACACGUCU | 1.23
GGGUCGAGCGAUUAUAAUCGCGUGGAUAUGGCACGCAAGUUUCUACCGGGCACCGUAAAUGUCCGACUGGAGCCGUUCGGGCGGCUAUAAACAGACCUCAGGCCCGAAGCGUGGCGGCACCUGCCGCCGGUGGUAAAAAAGAUCGGAAGAGCACACGUCU | 1.42
GGGUCGAGCGAUCAUAAUCGCGUGGAUAUGGCACGCAAGUUUCUACCGGGCACCGUAAAUGUCCGACUGGAGCCGUUCGGGCGGCUAUAAACAGACCUCAGGCCCGAAGCGUGGCGGCACCUGCCGCCGGUGGUAAAAAAGAUCGGAAGAGCACACGUCU | 1.2
GGGUCGAGCGAGCAUAAUCGCGUGGAUAUGGCACGCAAGUUUCUACCGGGCACCGUAAAUGUCCGACUGGAGCCGUUCGGGCGGCUAUAAACAGACCUCAGGCCCGAAGCGUGGCGGCACCUGCCGCCGGUGGUAAAAAAGAUCGGAAGAGCACACGUCU | 1.39
GGGUCGAGCGAACAUAAUCGCGUGGAUAUGGCACGCAAGUUUCUACCGGGCACCGUAAAUGUCCGACUGGAGCCGUUCGGGCGGCUAUAAACAGACCUCAGGCCCGAAGCGUGGCGGCACCUGCCGCCGGUGGUAAAAAAGAUCGGAAGAGCACACGUCU | 1.42
GGGUCGAGCGACAAUAAUCGCGUGGAUAUGGCACGCAAGUUUCUACCGGGCACCGUAAAUGUCCGACUGGAGCCGUUCGGGCGGCUAUAAACAGACCUCAGGCCCGAAGCGUGGCGGCACCUGCCGCCGGUGGUAAAAAAGAUCGGAAGAGCACACGUCU | 1.11
GGGUCGAGCGACGAUAAUCGCGUGGAUAUGGCACGCAAGUUUCUACCGGGCACCGUAAAUGUCCGACUGGAGCCGUUCGGGCGGCUAUAAACAGACCUCAGGCCCGAAGCGUGGCGGCACCUGCCGCCGGUGGUAAAAAAGAUCGGAAGAGCACACGUCU | 1.25
GGGUCGAGCGACUAUAAUCGCGUGGAUAUGGCACGCAAGUUUCUACCGGGCACCGUAAAUGUCCGACUGGAGCCGUUCGGGCGGCUAUAAACAGACCUCAGGCCCGAAGCGUGGCGGCACCUGCCGCCGGUGGUAAAAAAGAUCGGAAGAGCACACGUCU | 1.15
GGGUCGAGCGAGAAUAAUCGCGUGGAUAUGGCACGCAAGUUUCUACCGGGCACCGUAAAUGUCCGACUGGAGCCGUUCGGGCGGCUAUAAACAGACCUCAGGCCCGAAGCGUGGCGGCACCUGCCGCCGGUGGUAAAAAAGAUCGGAAGAGCACACGUCU | 1.33
GGGUCGAGCGAGUAUAAUCGCGUGGAUAUGGCACGCAAGUUUCUACCGGGCACCGUAAAUGUCCGACUGGAGCCGUUCGGGCGGCUAUAAACAGACCUCAGGCCCGAAGCGUGGCGGCACCUGCCGCCGGUGGUAAAAAAGAUCGGAAGAGCACACGUCU | 1.46
GGGUCGAGCGAGGAUAAUCGCGUGGAUAUGGCACGCAAGUUUCUACCGGGCACCGUAAAUGUCCGACUGGAGCCGUUCGGGCGGCUAUAAACAGACCUCAGGCCCGAAGCGUGGCGGCACCUGCCGCCGGUGGUAAAAAAGAUCGGAAGAGCACACGUCU | 1.39
GGGUCGAGCGAAAAUAAUCGCGUGGAUAUGGCACGCAAGUUUCUACCGGGCACCGUAAAUGUCCGACUGGAGCCGUUCGGGCGGCUAUAAACAGACCUCAGGCCCGAAGCGUGGCGGCACCUGCCGCCGGUGGUAAAAAAGAUCGGAAGAGCACACGUCU | 1.16
GGGUCGAGCGAAGAUAAUCGCGUGGAUAUGGCACGCAAGUUUCUACCGGGCACCGUAAAUGUCCGACUGGAGCCGUUCGGGCGGCUAUAAACAGACCUCAGGCCCGAAGCGUGGCGGCACCUGCCGCCGGUGGUAAAAAAGAUCGGAAGAGCACACGUCU | 1.38
GGGUCGAGCGAAUAUAAUCGCGUGGAUAUGGCACGCAAGUUUCUACCGGGCACCGUAAAUGUCCGACUGGAGCCGUUCGGGCGGCUAUAAACAGACCUCAGGCCCGAAGCGUGGCGGCACCUGCCGCCGGUGGUAAAAAAGAUCGGAAGAGCACACGUCU | 1.47
GGGUCGAGCGUCUAUAAUCGCGUGGAUAUGGCACGCAAGUUUCUACCGGGCACCGUAAAUGUCCGACUGGAGCCGUUCGGGCGGCUAUAAACAGACCUCAGGCCCGAAGCGUGGCGGCACCUGCCGCCGGUGGUAAAAAAGAUCGGAAGAGCACACGUCU | 1.17
GGGUCGAGCGCCCAUAAUCGCGUGGAUAUGGCACGCAAGUUUCUACCGGGCACCGUAAAUGUCCGACUGGAGCCGUUCGGGCGGCUAUAAACAGACCUCAGGCCCGAAGCGUGGCGGCACCUGCCGCCGGUGGUAAAAAAGAUCGGAAGAGCACACGUCU | 1.04
GGGUCGAGCGACCAUAAUCGCGUGGAUAUGGCACGCAAGUUUCUACCGGGCACCGUAAAUGUCCGACUGGAGCCGUUCGGGCGGCUAUAAACAGACCUCAGGCCCGAAGCGUGGCGGCACCUGCCGCCGGUGGUAAAAAAGAUCGGAAGAGCACACGUCU | 1.07
